Molecular target: PHF-tau (paired helical filament tau; sarcosyl insoluble prep from human AD brain) (human) (UniProt P10636)
Assay: SPR (ProteOn), mAb on PHF-tau, bivalent analyte fit; apparent affinity (avidity)

Sequence of PHF-tau (paired helical filament tau; sarcosyl insoluble prep from human AD brain) (human) (P10636 other isoform, or with tags, fused parts or gaps limits assumed): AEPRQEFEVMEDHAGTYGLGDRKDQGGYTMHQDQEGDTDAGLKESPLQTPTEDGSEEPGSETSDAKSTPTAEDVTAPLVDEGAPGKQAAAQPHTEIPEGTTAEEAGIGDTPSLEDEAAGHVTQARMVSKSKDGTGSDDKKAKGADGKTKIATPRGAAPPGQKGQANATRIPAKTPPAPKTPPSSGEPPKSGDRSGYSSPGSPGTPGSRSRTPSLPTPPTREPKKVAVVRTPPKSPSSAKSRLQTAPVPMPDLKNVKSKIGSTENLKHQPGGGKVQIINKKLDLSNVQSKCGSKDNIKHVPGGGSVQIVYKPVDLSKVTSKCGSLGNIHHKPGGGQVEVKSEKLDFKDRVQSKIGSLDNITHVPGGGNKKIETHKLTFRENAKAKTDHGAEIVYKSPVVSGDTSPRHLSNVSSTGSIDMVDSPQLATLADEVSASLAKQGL

- Kd: 0.291 nM
Substance: HT7 (reference mAb) (antibody)

From patent publication US20240150451A1
